The record followed here is US20240400677A1 (ELECTRA THERAPEUTICS, published 2024).

Changes are numbered by the printed parent chain.

The target of test [1] is T1, cynomolgus monkey SIRPα on CHO cells (cynomolgus monkey, UniProt A0A2K5VYQ9 31-507).
T1 construct: whole, on cells; also called Cyno SIRPα CHO
T1 sequence: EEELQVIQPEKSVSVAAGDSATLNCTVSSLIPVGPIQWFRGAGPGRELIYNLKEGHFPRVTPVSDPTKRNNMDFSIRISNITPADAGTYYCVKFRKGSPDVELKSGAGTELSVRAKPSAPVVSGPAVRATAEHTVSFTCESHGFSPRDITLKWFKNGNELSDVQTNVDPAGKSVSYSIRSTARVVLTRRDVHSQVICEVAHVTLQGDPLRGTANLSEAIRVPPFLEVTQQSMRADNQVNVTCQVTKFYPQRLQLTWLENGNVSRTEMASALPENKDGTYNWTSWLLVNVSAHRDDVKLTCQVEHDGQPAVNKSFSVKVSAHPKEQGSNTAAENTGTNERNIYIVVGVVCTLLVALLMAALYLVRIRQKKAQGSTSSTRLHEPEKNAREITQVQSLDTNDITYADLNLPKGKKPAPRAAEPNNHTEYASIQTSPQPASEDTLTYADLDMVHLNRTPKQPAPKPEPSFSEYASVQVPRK
In words: flow cytometry, CHO transfectants, anti-human IgG. As for the experimental part:
(§1) Selected antibodies were tested for binding to stably transfected human SIRPγ, SIRPαV1, or SIRPβ1 (co-transfected with DAP12) Chinese hamster ovary (CHO) cells via flow cytometry. A titration of select antibodies was added to the cells and detected using a fluorescently labelled secondary anti-rat IgG antibody or anti-human IgG antibody. Graphs depict the median fluorescence intensity (MFI) at each concentration. FIGS. 5A and 5G show the binding curves of select antibodies to human SIRPγ, cynomolgus monkey SIRPγ, human SIRPα, cynomolgus monkey SIRPα, human SIRPβ1, or cynomolgus monkey SIRPβl-expressing CHO cells detected using an anti-rat IgG antibody. FIGS. 5B-5F and 5H-5L show the binding curves of select antibodies to human SIRPγ, cynomolgus monkey SIRPγ, human SIRPα, cynomolgus monkey SIRPα, human SIRPβ1, or cynomolgus monkey SIRPβ1-expressing CHO cells detected using an anti-human IgG antibody. […] For select antibodies, each myc-tagged SIRPγ scFv antibody as crude PPE was incubated with each of the SIRP-expressing cell lines stated above along with the parental CHO-K1 cell line. […] Fold change value <2.0 is considered a non-binder.

Test [2] deals with T2, human SIRPβ1 on CHO cells (co-transfected with DAP12) (human, UniProt O00241 30-398).
T2 construct: whole, on cells; co-transfected with DAP12; also called Human SIRPβ1 CHO
In words: flow cytometry, CHO transfectants, anti-human IgG. As for the experimental part: as §1
(In flow cytometry, cells or beads pass a laser one at a time.)

The target in test [3] is T3, extracellular binding domain of human SIRPγ (plate-coated) (human, UniProt Q9P1W8 29-360).
T3 construct: also called hSIRPγ
As to the kind of experiment: ELISA, coated SIRP ECD (2 µg/mL), anti-human IgG, luminescence. As for the experimental part:
(§2) Selected hybridoma supernatants of Example 1 were tested for binding to human SIRPγ, cynomolgus monkey SIRPγ, human SIRPα V1, cynomolgus monkey SIRPα, human SIRPβ1, and cynomolgus monkey SIRPβ1 by enzyme-linked immunosorbent assay (ELISA). Briefly, 2 μg/mL of the extracellular domain of SIRP protein was coated onto high protein-binding plates and blocked. Undiluted supernatants were added to coated plates. The antibodies were detected by an anti-rat antibody and a chemiluminescent substrate. […] The data depict the relative luminescence units read by a plate-reader capable of detecting chemiluminescence.
(§3) FIGS. 2A-2G show binding curves of SIRPγ antibodies and human Fc isotype controls to human SIRPγ, cynomolgus monkey SIRPγ, human SIRPα V1, human SIRPα V2, and human SIRPβ1 by ELISA. […] Isotype control 2 was an unrelated human IgG1 antibody with irrelevant CDRs with no modifications in the Fc region. DNA was transiently transfected into Expi293F cells for 5 days. Antibodies were purified by Protein A from cell supernatants and analyzed in a titration via ELISA as previously described in FIG. 1 using an anti-human IgG antibody as the detection antibody.
A general note: In an ELISA, binding on a coated surface is turned into a signal by an enzyme label.

The target in test [4] is T4, Cynomolgus Monkey SIRPγ (plate-coated extracellular domain).
T4 construct: also called Cyno SIRPγ
T4 extracellular domain: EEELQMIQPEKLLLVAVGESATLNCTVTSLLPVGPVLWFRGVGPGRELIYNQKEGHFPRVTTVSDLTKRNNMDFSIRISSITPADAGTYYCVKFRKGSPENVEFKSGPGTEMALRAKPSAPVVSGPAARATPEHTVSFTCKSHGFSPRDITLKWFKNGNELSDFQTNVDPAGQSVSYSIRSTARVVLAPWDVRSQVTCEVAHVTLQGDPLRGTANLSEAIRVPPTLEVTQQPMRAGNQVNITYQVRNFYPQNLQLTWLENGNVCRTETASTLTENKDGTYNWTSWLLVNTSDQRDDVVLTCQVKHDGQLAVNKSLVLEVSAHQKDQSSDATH
The description is as above. As for the experimental part: as §2, §3

T2 sequence (O00241 30-398): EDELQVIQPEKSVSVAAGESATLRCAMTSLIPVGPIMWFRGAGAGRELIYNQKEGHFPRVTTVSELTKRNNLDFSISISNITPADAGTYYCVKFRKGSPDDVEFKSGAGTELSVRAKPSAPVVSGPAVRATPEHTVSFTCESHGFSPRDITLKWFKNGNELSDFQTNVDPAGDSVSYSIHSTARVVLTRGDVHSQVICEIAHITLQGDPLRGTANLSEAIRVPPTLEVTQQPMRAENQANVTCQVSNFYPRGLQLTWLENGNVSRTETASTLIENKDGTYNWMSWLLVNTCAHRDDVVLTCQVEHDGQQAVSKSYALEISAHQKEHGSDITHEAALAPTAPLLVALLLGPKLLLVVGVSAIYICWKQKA
T3 sequence (Q9P1W8 29-360 limits assumed): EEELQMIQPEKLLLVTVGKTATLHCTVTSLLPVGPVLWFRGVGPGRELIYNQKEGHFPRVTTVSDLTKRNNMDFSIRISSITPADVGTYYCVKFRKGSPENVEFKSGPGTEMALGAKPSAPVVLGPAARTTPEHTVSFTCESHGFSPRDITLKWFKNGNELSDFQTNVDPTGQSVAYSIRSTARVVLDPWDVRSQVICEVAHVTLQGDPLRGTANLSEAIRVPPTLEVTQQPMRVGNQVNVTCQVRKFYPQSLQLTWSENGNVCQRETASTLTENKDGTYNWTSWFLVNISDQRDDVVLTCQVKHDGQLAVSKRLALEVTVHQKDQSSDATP

B1: Antibody 55 (antibody, V domains shown)
VH: EVQLLESGGGLVQPGGSLRLSCAASGFTFSNSDMNWVRQAPGKGLEWVSYISSSGNTIYYADSVKGRFTISRDNSKNTLYLQMNSLRAEDTAVYYCARSNWNYPLDYYYMDVWGKGTTVTVSS
VL: DIVMTQSPLSLPVTPGEPASISCRSSQSLLHSNGYNYLDWYLQKPGQSPQLLIYAASSLQSGVPDRFSGSGSGTDFTLKISRVEAEDVGVYYCMQGTHWPPTFGQGTKVEIK
One may read the EC50 (read off the curve) as the midpoint of the concentration-response curve. On to B1, for which the binding result in test [1] and in test [2] was “no binding (tested: about 20 µg/mL)” each time. Besides, the “EC50 (read off the curve)” value in test [3] is roughly 0.7 µg/mL.

B2: Antibody 75 (antibody, V domains shown)
VH: QVQLVQSGAEVKKPGSSVKVSCKASGGTFSNYAISWVRQAPGQGLEWMGGIIPIFGSTASYAQKFQGRVTITADESTSTAYMELSSLRSEDTAVYYCARGVGDDTLTDWGQGTLVTVSS
VL: B1 VL with G96A, T97L, H98Q, W99T, P101L, Q105G
With B2, the binding result in test [1] and in test [2] was “no binding (tested: about 20 µg/mL)” each time.

B3: Antibody 56 (antibody, V domains shown)
VH: QVQLVQSGAEVKKPGASVKVSCKASGYTFTSYYMHWVRQAPGQGLEWMGWVDPNNGDTGYAQKFQGRVTMTRDTSTSTVYMELSSLRSEDTAVYYCARDNWGSLDVWGKGTTVTVSS
VL: B1 VL with S58T, T97L, H98Q, W99T, P100L, P101Y, T102S, V109L
Regarding B3, the binding result in test [2] is reported as “no binding (tested: about 20 µg/mL)”. Also, the “EC50 (read off the curve)” value in test [4] is roughly 0.4 µg/mL; in test [3], roughly 0.7 µg/mL.

B4: Antibody 62 (antibody, V domains shown)
VH: QVQLVQSGAEVKKPGASVKVSCKASGGTFSNYDINWVRQAPGQGLEWMGWISAYNGNTNYAQKLQGRVTMTRDTSTSTVYMELSSLRSEDTAVYYCAAEAYGDYSLDPWGQGTLVTVSS
VL: DIQMTQSPSSLSASVGDRVTITCQASQGISSYLNWYQQKPGKAPKLLIYAASSLQNGVPSRFSGSGSGTDFTLTISSLQPEDFATYYCQQSYSTPITFGQGTRLEIK
Turning to B4, the binding result is given as “no binding (tested: about 20 µg/mL)” in test [1], “no binding (tested: about 20 µg/mL)” in test [2] and “binds” in test [4].

B5: Antibody 81 (antibody, V domains shown)
VH: QVQLVQSGAEVKKPGASVKVSCKASGYTFTSYDINWVRQAPGQGLEWMGWISGYNGNTNYAQKFQGRVTMTRDTSTSTVYMELSSLRSEDTAVYYCARSFDWLLLLDYWGQGTLVTVSS
VL: DIQMTQSPSSLSASVGDRVTITCRASQSISSWLAWYQQKPGKAPKLLIYDATTLESGVPSRFSGSGSGTDFTLTISSLQPEDFATYYCQQYDSYPWTFGQGTKLEIK
Turning to B5, the binding result in test [1] and in test [2] was “no binding (tested: about 20 µg/mL)” in each case. The “EC50 (read off the curve)” value was roughly 0.04 µg/mL in test [4] and roughly 0.02 µg/mL in test [3].

B6: Antibody 77 (antibody, V domains shown)
VH: QVQLVQSGAEVKKPGASVKVSCKASGYTFTSYGISWVRQAPGQGLEWMGWISAYNGNTNYAQKFQGRVTMTRDTSTSTVYMELSSLRSEDTAVYYCARGTYYDYIWGSYRYSWFDYWGQGTLVTVSS
VL: not shown
As to B6, the binding result in test [1] and in test [2] was “no binding (tested: about 20 µg/mL)” throughout. Further, the “EC50 (read off the curve)” value is roughly 0.04 µg/mL in test [4] and roughly 0.02 µg/mL in test [3].

B7: Antibody 66 (antibody, V domains shown)
VH: QVQLVQSGAEVKKPGASVKVSCKASGGTFSSYAISWVRQAPGQGLEWMGIINPSSSSTGYAQKFQGRVTMTRDTSTSTVYMELSSLRSEDTAVYYCARAGYYDSSGYYYSPYYGMDVWGQGTTVTVSS
VL: EIVMTQSPATLSVSPGERATLSCRASQSISGSYLAWYQQKPGQAPRLLIYGASTRATGIPARFSGSGSGTEFTLTISSLQSEDFAVYYCQQYGSFPFTFGPGTKVDIK
For the molecule B7, the binding result in test [1] and in test [2] was “no binding (tested: about 20 µg/mL)” in each case. Also, the “EC50 (read off the curve)” value in test [4] is roughly 0.1 µg/mL.

B8: Antibody 78 (antibody, V domains shown)
VH: QVQLVQSGAEVKKPGASVKVSCKASGYTFTTYGISWVRQAPGQGLEWMGWMDPNSGSTGYAQKFQGRVTMTRDTSTSTVYMELSSLRSEDTAVYYCARGRGNSYYYYYMDVWGKGTTVTVSS
VL: DIQMTQSPSSLSASVGDRVTITCRASQRIGSYLNWYQQKPGKAPKLLIYGASNLQSGVPSRFSGSGSGTDFTLTISSLQPEDFATYYCQQANSFPFTFGPGTKVDIK
On to B8, for which the binding result in test [1] is listed as “no binding (tested: about 20 µg/mL)”; in test [2], “no binding (tested: about 20 µg/mL)”; in test [4], “binds”.

B9: Antibody 67 (antibody, V domains shown)
VH: QVQLVQSGAEVKKPGASVKVSCKASGYTFTNFDINWVRQAPGQGLEWMGWISAYNGHTNYAQNLQGRVTMTRDTSTSTVYMELSSLRSEDTAVYYCAQEAAAGYFDYWGQGTLVTVSS
VL: DIQMTQSPSSLSASVGDRVTITCRASQDIRNDLAWYQQKPGKAPKLLIYDASNLETGVPSRFSGSGSGTDFTLTISSLQPEDFATYYCQQSYGTPYTFGQGTKLEIK
Regarding B9, the binding result is recorded as “no binding (tested: about 20 µg/mL)” in test [1], “no binding (tested: about 20 µg/mL)” in test [2] and “binds” in test [4].

B10: Antibody 61 (antibody, V domains shown)
VH: QVQLVQSGAEVKKPGASVKVSCKASGYTFTSHDINWVRQAPGQGLEWMGISNPSGGSTYYAQKFQGRVTMTRDTSTSTVYMELSSLRSEDTAVYYCASSRRYWNGAFDYWGQGTLVTVSS
VL: not shown
With B10, in test [4], the binding result is reported as “binds”.

B11: Antibody 74 (antibody, V domains shown)
VH: QVQLVQSGAEVKKPGASVKVSCKASGGTFSNYGFSWVRQAPGQGLEWMGWMSPSSGNTGYAQKFQGRVTMTRDTSTSTVYMELSSLRSEDTAVYYCARERSGSYFDYWGQGTLVTVSS
VL: EIVMTQSPATLSVSPGERATLSCRASQSVSSYLAWYQQKPGQAPRLLIYGTSTRATGIPARFSGSGSGTEFTLTISSLQSEDFAVYYCQQYGSLPFTFGQGTRLEIK
For B11, the binding result in test [1] and in test [2] was “no binding (tested: about 20 µg/mL)” each time. For the same molecule, the “EC50 (read off the curve)” value was roughly 0.7 µg/mL in test [4] and roughly 0.4 µg/mL in test [3].

B12: Antibody 76 (antibody, V domains shown)
VH: QVQLVQSGAEVKKPGSSVKVSCKASGGTFSKIAVSWVRQAPGQGLEWMGLINPNSGGTDYAQKFQGRVTITADESTSTAYMELSSLRSEDTAVYYCAKDFRGGDYYYYGMDVWGQGTTVTVSS
VL: B11 VL with Y32N, T51A, G92N, S93T, L94Y, F96I, R103K, L104V
On to B12, for which the binding result in test [1] and in test [2] was “no binding (tested: about 20 µg/mL)” each time. Besides, the “EC50 (read off the curve)” value in test [4] is roughly 0.1 µg/mL; in test [3], roughly 0.09 µg/mL.
